Experimental data published in the supplement of paper PMC7125110.
± gives the standard error. Fewer inactive variants are shown than the library holds.

B1: glmS ribozyme (parent)
chain: AUAAAAGCGCCAGAACUACAGAAAUGUAGUUGACGAGGAGGAGGUUUAUCGAAUUUUCGGCGGAUGCCUCCAAA

Legend:
Conditions in all cases: with glucosamine-6-phosphate
glucosamine-6-phosphate [1] = variants of: B1; experiment: self-cleavage kobs at 640 uM GlcN6P; higher = faster cleavage; RNA array
Outline: (§1)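 Tracking of barcoded ribozyme variants used a hybridised Cy3 probe at 37 °C, after in situ transcription by E. coli RNA polymerase on sequenced MiSeq chips. The flowed solution held 40 μM to 10 mM glucosamine-6-phosphate in HEPES/KCl/Mg(OAc)2 buffer, and imaging ran over ~14 h. kobs was taken from exponential decay fits of normalised per-tile medians, and kcat and KM from weighted Michaelis–Menten fits.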

glucosamine-6-phosphate [2] = variants of: B1; experiment: self-cleavage kobs at 2500 uM GlcN6P; higher = faster cleavage; RNA array
Outline: as §1

glucosamine-6-phosphate [3] = variants of: B1; experiment: self-cleavage kobs at 10000 uM GlcN6P; higher = faster cleavage; RNA array
Outline: as §1

Variant	self-cleavage kobs at 640 uM GlcN6P (glucosamine-6-phosphate [1]) [s⁻¹]	self-cleavage kobs at 2500 uM GlcN6P (glucosamine-6-phosphate [2]) [s⁻¹]	self-cleavage kobs at 10000 uM GlcN6P (glucosamine-6-phosphate [3]) [s⁻¹]
A12U C50U G59U	< 1e-05	< 1e-05	< 1e-05
G29A A33U G44U	< 1e-05	–	–
C10A C16A C68A	0.000126 ± 4.7e-05	–	–
G7U G32C G38C A42U C50U	< 1e-05	–	–
A14G G35U G37C U47C	< 1e-05	–	–
C10A G41C A48U	< 1e-05	< 1e-05	–
C34A A39C G59C C61G	< 1e-05	< 1e-05	–
C34U A48U A64U	< 1e-05	< 1e-05	–
G35U G59U G60C G62U	< 1e-05	–	–
G32U A33G	< 1e-05	–	–
G7U G40A G60U	< 1e-05	< 1e-05	–
U30G G40A U56G	6.26e-05 ± 2e-05	0.00032 ± 7.3e-05	–
G29A U47G A53G C61U U65A	< 1e-05	–	–
A12C G32C U57C C58U	< 1e-05	< 1e-05	–
C8G C10U A48U	< 1e-05	< 1e-05	–
G40U C50A G51A	< 1e-05	–	–
G41C U45G C71U	4.68e-05 ± 1.6e-05	0.000157 ± 3.9e-05	–
C58A C61G C68U	0.000169 ± 7.3e-05	–	–
G35U G43U G60A	< 1e-05	< 1e-05	–
C34A G51A A52G	< 1e-05	< 1e-05	–
U47G U57G C61G C67U	0.000132 ± 5.3e-05	0.000254 ± 6.6e-05	–
G7C A12U G41U	< 1e-05	< 1e-05	–

Variant	self-cleavage kobs at 640 uM GlcN6P (glucosamine-6-phosphate [1]) [s⁻¹]	self-cleavage kobs at 2500 uM GlcN6P (glucosamine-6-phosphate [2]) [s⁻¹]	self-cleavage kobs at 10000 uM GlcN6P (glucosamine-6-phosphate [3]) [s⁻¹]
G41A G51U C68U C70G	< 1e-05	< 1e-05	–
A15U G35A C68U	< 1e-05	< 1e-05	–
G13U A15U C70U	3.4e-05 ± 9.4e-06	7.46e-05 ± 2.2e-05	5.88e-05 ± 1.3e-05
G38A C61U C68U	< 1e-05	–	–
G9C G29A G41A	< 1e-05	< 1e-05	–
C34G U57A	< 1e-05	–	< 1e-05
C19A U30A	0.000125 ± 2.9e-05	0.000235 ± 4.3e-05	–
G7U G9A G38U	< 1e-05	–	–
A64C C68A C70G	< 1e-05	< 1e-05	–
C11G G13C A48G	< 1e-05	< 1e-05	–
A33C G35C U56C C67U	< 1e-05	–	–
C16U A53G C70A	0.000224 ± 3.5e-05	0.000232 ± 6.5e-05	–
A6G C16A G35U A48U	< 1e-05	< 1e-05	–
C10U A14U G32A A42C	< 1e-05	–	–
A6C U31C C70A	7.34e-05 ± 3e-05	–	–
C50G A52U C70U	0.000121 ± 5e-05	–	–
A14U U46G G60A C71A	< 1e-05	–	–
C11A A53C G66U	< 1e-05	–	–
A12G G43A U46G U69G	< 1e-05	< 1e-05	–
U30A G51U A53C G59A G60C C70G	< 1e-05	–	–
A12C U31C A39G	0.000185 ± 3.9e-05	0.00135 ± 0.00023	0.00124 ± 0.00028
C34U U69G C71U	0.000948 ± 0.00043	6.74e-05 ± 3.3e-05	–

Variant	self-cleavage kobs at 640 uM GlcN6P (glucosamine-6-phosphate [1]) [s⁻¹]	self-cleavage kobs at 2500 uM GlcN6P (glucosamine-6-phosphate [2]) [s⁻¹]	self-cleavage kobs at 10000 uM GlcN6P (glucosamine-6-phosphate [3]) [s⁻¹]
G13U U31C G62A	< 1e-05	–	–
G32A A36C U55G C67G C68G	0.000126 ± 3.4e-05	4.75e-05 ± 1.2e-05	–
C16A C70U C71A	0.00012 ± 4.3e-05	–	–
U46G C67U C71A	6.72e-05 ± 2e-05	–	–
C16G U30C C50U	< 1e-05	–	–
A39C U55G C67U	7.28e-05 ± 1.4e-05	–	–
G13A G44C U54G	< 1e-05	–	–
A15U U45C C50G U69G	< 1e-05	< 1e-05	–
C8G G13C G38U C50G	4.5e-05 ± 2.2e-05	–	–
U47G G63U C68G	6.95e-05 ± 3.1e-05	–	–
C8U C50G G51U U56C	< 1e-05	–	–
A12G A36U	< 1e-05	–	–
C11U G29U U54A	0.000113 ± 2.1e-05	0.000171 ± 4.4e-05	0.000577 ± 0.00014
G7C C8G C10U C70G	0.000355 ± 0.0001	–	–
A39C U45A C68G	< 1e-05	–	–
C8G G32A U57G C67U	< 1e-05	–	–
U47C U55A	0.00113 ± 0.00019	0.00273 ± 0.00077	0.00496 ± 0.0011
C10U G13C A15U C16U C50G	0.000145 ± 6.3e-05	0.000146 ± 5.6e-05	–
U30A C70G C71U	5.91e-05 ± 2.5e-05	8.51e-05 ± 2.9e-05	–
A4C G32U U47G	8.66e-05 ± 2.2e-05	0.000118 ± 3.5e-05	–
G9U C58G G59C	< 1e-05	< 1e-05	–
C8U C16G A52U U65G G66A	< 1e-05	< 1e-05	–
